Data published in patent publication US12201676B2, “Composition comprising diamine oxidase for use in the treatment or prevention of fibromyalgia or chronic fatigue syndrome” (DR HEALTHCARE ESPAÑA, S.L., priority 2011, dated 2025).

Columns and labels:
[1] = system: histamine level in blood; test: Histamine level in blood of chronic fatigue syndrome subjects; format: in vivo, human; conditions: 4 mg DAO twice a day
[2] = system: subjects diagnosed with chronic fatigue syndrome and with DAO deficit; test: Efficacy of DAO compositions in chronic fatigue syndrome, grades of improvement on the CLINIC scale; format: in vivo, human; conditions: chronic fatigue syndrome grades II, III and IV with DAO deficit, 4 mg DAO twice a day, count of 23 subjects
Experimental: Oral compositions containing DAO of the present invention were tested in a total of 46 subjects diagnosed with chronic fatigue syndrome, as out-patients.
To evaluate the degree of affectation of chronic fatigue syndrome in candidate study subjects, the quality of life of these subjects was evaluated using a simple scale of 4 successive grades (I, II, III and IV), with criteria used in the clinic. This scale is used in the Chronic Fatigue Syndrome (CFS) Functional Unit in the Hospital Clinic.
The CLINIC scale consists of dividing the patients with chronic fatigue syndrome into four different grades of functional affectation depending on the effect of their fatigue on quality of life:
GRADE I: the patient is sometimes or occasionally fatigued, without significant limitation (<50%) of work or daily life activities.
GRADE II: persistent presence of fatigue, oscillating but without improvement, with marked effect (>50%) on work and also daily life activities.
GRADE IV: extreme fatigue that requires the help of other people for basic personal activities and that makes autonomy and the activities of daily life impossible.
Improvement is evaluated when the patient passes from a higher to a lower grade in terms of the number of improvement grades.

B1: diamine oxidase (protein, UniProt P19801 20-751, looked up)
Diamine oxidase …: EPSPGTLPRKAGVFSDLSNQELKAVHSFLWSKKELRLQPSSTTTMAKNTVFLIEMLLPKKYHVLRFLDKGERHPVREARAVIFFGDQEHPNVTEFAVGPLPGPCYMRALSPRPGYQSSWASRPISTAEYALLYHTLQEATKPLHQFFLNTTGFSFQDCHDRCLAFTDVAPRGVASGQRRSWLIIQRYVEGYFLHPTGLELLVDHGSTDAGHWAVEQVWYNGKFYGSPEELARKYADGEVDVVVLEDPLPGGKGHDSTEEPPLFSSHKPRGDFPSPIHVSGPRLVQPHGPRFRLEGNAVLYGGWSFAFRLRSSSGLQVLNVHFGGERIAYEVSVQEAVALYGGHTPAGMQTKYLDVGWGLGSVTHELAPGIDCPETATFLDTFHYYDADDPVHYPRALCLFEMPTGVPLRRHFNSNFKGGFNFYAGLKGQVLVLRTTSTVYNYDYIWDFIFYPNGVMEAKMHATGYVHATFYTPEGLRHGTRLHTHLIGNIHTHLVHYRVDLDVAGTKNSFQTLQMKLENITNPWSPRHRVVQPTLEQTQYSWERQAAFRFKRKLPKYLLFTSPQENPWGHKRTYRLQIHSMADQVLPPGWQEEQAITWARYPLAVTKYRESELCSSSIYHQNDPWHPPVVFEQFLHNNENIENEDLVAWVTVGFLHIPHSEDIPNTATPGNSVGFLLRPFNFFPEDPSLASRDTVIVWPRDNGPNYVQRWIPEDRDCSMPPPFSYNGTYRPV
notes: Enzyme diamine oxidase
B1 was tested, and the “Histamine level in blood” value [1] was 2-20 micrograms/0.1 L, the “Number of grades of improvement: 1 (subjects)” value [2] was 16 of 23 and the “Number of grades of improvement: 2 (subjects)” value [2] was 4 of 23.
